Each binder was assayed against M-CSF endogenously expressed on MDA-MB-231 cells (human) (UniProt P09603) (assay: FACS, MDA-MB-231 cells endogenously expressing M-CSF (n = 2)).

| Binder | EC50 [nM] |
| --- | --- |
| HeRX1-10G1, IgG1_D265A (antibody, V domains shown) VH: QVQLQESGPGLVKPSQTLSLTCTVSDYSITSDYAWNWIRQFPGKGLEWMGYISYSGSTSYNPSLKSRITISRDTSKNQFSLQLNSVTAADTAVYYCASFDYAHAMDYWGQGTTVTVSS VL: DIVLTQSPAFLSVTPGEKVTFTCQASQSIGTSIHWYQQKTDQAPKLLIKYASESISGIPSRFSGSGSGTDFTLTISSVEAEDAADYYCQQINSWPTTFGGGTKLEIKR | 23 |
| Romaine, IgG1_D265A (antibody, V domains shown) VH: EVQLVESGGGLVKPGGSLRLSCAASGFTFSIYAMSWVRQAPGKGLEWVGRIKSNADGGTTEYAAPVKGRFTISRDDSKNTLYLQMNSLKTEDTAVYYCARMRYYSDLYFDPWGQGTLVTVSS VL: DIELTQPPSVSVSPGQTASITCSGDAIGSKYVHWYQQKPGQAPVLVISKDNKRPSGIPERFSGSNSGNTATLTISGTQAEDEADYYCQTATVSSYWWVFGGGTKLTVLG | 19 |
| Madeleine, IgG1_D265A (antibody, V domains shown) VH: QVQLQQSGPGLVKPSQTLSLTCAISGDSVSSNSAAWNWIRQSPSRGLEWLGRTYYRSKWKKEYAQSVKSRITINPDTSKNQFSLQLNSVTPEDTAVYYCARDRYYYSAFDYWGQGTLVTVSS VL: QSALTQPASVSGSPGQSITISCTGTSSDVGGYNSVSWYQQHPGKAPKLMIYAVSNRPSGVSNRFSGSKSGNTASLTISGLQAEDEADYYCASYDERFTRVFGGGTKLTVLG | 10 |
| Meriem, IgG1_D265A (antibody, V domains shown) VH: QVQLQQSGPGLVKPSQTLSLTCAISGDSVSTSSAAWNWIRQSPSRGLEWLGRTYYRSKWKKEYAQSVKSRITINPDTSKNQFSLQLNSVTPEDTAVYYCARDRYYYSAFDYWGQGTLVTVSS VL: QSALTQPASVSGSPGQSITISCTGTSSDVGGYNSVSWYQQHPGKAPKLIIYAVSNRPSGVSNRFSGSKSGNTASLTISGLQAEDEADYYCASYDERFTRVFGGGTKLTVLG | 10 |

Continued by falling EC50, values first:

| EC50 [nM] | Binder |
| --- | --- |
| 27 | HeRX1-10G1, IgG1 (antibody, V domains shown) VH: QVQLQESGPGLVKPSQTLSLTCTVSDYSITSDYAWNWIRQFPGKGLEWMGYISYSGSTSYNPSLKSRITISRDTSKNQFSLQLNSVTAADTAVYYCASFDYAHAMDYWGQGTTVTVSS VL: DIVLTQSPAFLSVTPGEKVTFTCQASQSIGTSIHWYQQKTDQAPKLLIKYASESISGIPSRFSGSGSGTDFTLTISSVEAEDAADYYCQQINSWPTTFGGGTKLEIKR |
| 26 | Satine, IgG1_D265A (antibody, V domains shown) VH: EVQLVESGGGLVKPGGSLRLSCAASGFTFSIYAMSWVRQAPGKGLEWVGRIKSNADGGTTEYAAPVKGRFTISRDDSKNTLYLQMNSLKTEDTAVYYCARMRYYSDLYFDPWGQGTLVTVSS VL: SYELTQPPSVSVSPGQTASITCSGDKLGQKYVSWYQQKPGQSPVLVISQDRKRPSGIPERFSGSNSGNTATLTISGTQAEDEADYYCQTWTHLQWVFGGGTKLTVLG |
| 8 | Maelle, IgG1_D265A (antibody, V domains shown) VH: QVQLQQSGPGLVKPSQTLSLTCAISGESVSTSSAAWNWIRQSPSRGLEWLGRTYYRSKWKKEYAQSVKSRITINPDTSKNQFSLQLNSVTPEDTAVYYCARDRYYYSAFDYWGQGTLVTVSS VL: QSALTQPASVSGSPGQSITISCTGTSSDVGGYNSVSWYQQHPGKAPKLIIYAVSNRPSGVSNRFSGSKSGNTASLTISGLQAEDEADYYCASYDERFTRVFGGGTKLTVLG |
